In patent publication US8247352B2, “Method of inhibiting ethylene production in plants” (The Regents of the University of California, priority 2005, dated 2012) one finds Km and kcat data, which are given here for one protein.

Assay in all cases: Initial velocity assays (rate of oxygen consumption) with ACC or substrate analogs
Holding throughout (assay type): biochemical, Lycopersicon esculentum
What all share (conditions): other: O2 consumption, 25° C., pH 7.2, [Ascorbate] = 30 mM, [O2] = 258 μM, [CO2/bicarbonate] = 20 mM

Substrate in series [1]: CC(C)(N)C(=O)O
Procedure: (§1) Initial velocities were measured by the rate of oxygen consumption at 25° C., pH 7.2, using a YSI model 5300 biological oxygen monitor as previously described (Thrower 2001) with minor modifications. Standard reaction mixture (1 ml) contained 100 mM MOPS, pH 7.2, 20 mM NaHCO3, 100 mM NaCl, 20 mM sodium ascorbate, 0.1 mg/ml BSA, and ACC or substrate analog at various concentrations. Oxygen concentrations were kept at atmospheric concentration and determined using the oxygen monitor that was calibrated with air saturated water (258 μM oxygen at 25° C.). Reactions were initiated with 2 μL ACCO reconstituted with equimolar Fe(NH4)2(SO4)2. Data from initial velocity experiments with varying substrate concentrations were fitted to the Michaelis-Menton equation using the program Kalideograph.
(§2) The dependence of the initial velocity of oxygen consumption by ACCO:Fe(II) on the concentration of ACC or several substrate analogs was determined (Table 1). Either cyclic substrate analogs (including inhibitor Me-ACC, ACC-NH2, or ACC-OMe) or acyclic substrate analogs (AIB, D-Ala, or Gly) were used. […] Ascorbate and oxygen concentrations were kept constant at 30 mM and ˜258 μM, respectively.
Substrate in series [2]: C[C@@H](N)C(=O)O
Procedure: as §1, §2
Substrate in series [3]: NC1(C(=O)O)CC1
Procedure: as §1, §2

B1: ACC Oxidase (ACCO, ACO1) (Solanum lycopersicum) (protein)
chain: MENFPIINLEKLNGDERANTMEMIKDACENWGFFELVNHGIPHEVMDTVEKMTKGHYKKCMEQRFKELVASKGLEAVQAEVTDLDWESTFFLRHLPTSNISQVPDLDEEYREVMRDFAKRLEKLAEELLDLLCENLGLEKGYLKNAFYGSKGPNFGTKVSNYPPCPKPDLIKGLRAHTDAGGIILLFQDDKVSGLQLLKDEQWIDVPPMRHSIVVNLGDQLEVITNGKYKSVLHRVIAQTDGTRMSLASFYNPGSDAVIYPAKTLVEKEAEESTQVYPKFVFDDYMKLYAGLKFQAKEPRFEAMKAMESDPIASA
notes: made in house; host or cells: Escherichia coli BL21 (DE3)pLysS
A word on the kcat: it is the number of substrate molecules converted per active site and unit of time at saturation. As to B1, the values for the Km in series [1], in series [2] and in series [3] were 0.92 ± 0.29 mm, 4.42 ± 0.49 mm and 0.099 ± 0.018 mm, respectively. Also, the results for the kcat in series [1], in series [2] and in series [3] were 0.368 ± 0.0267 s⁻¹, 0.497 ± 0.015 s⁻¹ and 0.607 ± 0.0233 s⁻¹, respectively.
